Format in all cases: cell-based, human
The test system of data set [1] is hiPS cells (TkDN4-M). Nature of the data set: Observation of cell aggregates after 1 day of rotation culture (Example 2). The conditions noted are these: 10 μg/ml, FIG. 5; for uniformity of aggregate diameters compared to Comparative Example 2-1: mTeSR1, rotation culture 90 rpm for 1 day. The procedure:
To a 12-well plate subjected to low-cell-adhesion treatment, 1 mL of mTeSR®1 was added, and hiPS cells (TkDN4-M, Stem Cell Bank, The University of Tokyo) ([…] cells/ml) provided in advance and, as a substance that inhibits a cell adhesion molecule(s) of the hiPS cells, recombinant E-cadherin (hRP-0339, manufactured by LD Biopharma) (10 μg/ml) were added at the same time, followed by performing rotation culture at a speed of 90 rpm for 1 day.
Aggregates were obtained in the same manner as in Example 2-1 except that a neutralizing antibody against E-cadherin (E-cadherin antibody MAB3199Z, manufactured by Millipore) ([…]) was used as the substance that inhibits a cell adhesion molecule(s) of the hiPS cells in Example 2-2.
Aggregates were obtained in the same manner as in Example 2-1 except that E-cadherin-Fc (10 μg/ml) was used as the substance that inhibits a cell adhesion molecule(s) of the hiPS cells in Example 2-3.
Morphology of cell aggregates in Examples 2-1 to 2-3 and Comparative Example 2-1 was observed using a phase-contrast microscope (product name. DM IRB; manufactured by LEICA).

The subject of data set [2] is hiPS cells (TkDN4-M). The experiment in a line: Diameters of cell aggregates in rotation suspension culture in mTeSR1 (Example 1). The procedure:
As pluripotent stem cells, hiPS cells (TkDN4-M, Stem Cell Bank, The University of Tokyo) were used. These cells were plated on the above culture plate at a density of 100,000 to 400,000 cells/well, and cultured for four days. The culture was carried out using, as a culture medium, 2 mL/well of mTeSR®1 (manufactured by StemCell Technologies). During the culture, medium replacement was carried out every day except for the day after the plating.
For detachment and collection of cells, TrypLE® select (manufactured by Life Technologies), which is a trypsin-like enzyme, was used. After removal of the culture liquid, TrypLE® select was added to the wells at 1 mL/well, and the plate was incubated at 37° C. for 2 to 5 minutes. Thereafter, TrypLE® select was removed, and mTeSR®1 supplemented with 10 μM Y-27632, which is a ROCK inhibitor, was added to the wells at 2 mL/well, followed by pipetting using a 1000-μL micropipette to detach the cells. The collected cell suspension was passed through a 40-μm cell strainer (BD) to collect the cells as single cells and/or microaggregates, to thereby obtain cells to be applied to suspension culture.
In the following Examples and Comparative Examples, morphology and sizes of cell aggregates during the culture period were observed and measured using a phase-contrast microscope (product name, DM IRB; manufactured by LEICA). […]

The subject of data set [3] is hiPS cells (TkDN4-M). Nature of the data set: Measurement of glucose consumption, Essential 8 culture (Example 3). Conditions: Examples 3-1 and 3-2 (50, 100 μg/ml) vs Comparative Example 3-1, Essential 8, FIG. 8. On the procedure: (§1) During the whole culture period, 300 μL of the culture liquid was collected upon replacement of the medium, and the glucose concentration was analyzed using an enzyme-electrode type bioanalyzer (YS12950) to calculate changes in the glucose consumption.
(§2) To a 12-well plate subjected to low-cell-adhesion treatment, 1 mL of Essential 8® was added, and hiPS cells (TkDN4-M, Stem Cell Bank, The University of Tokyo) (2×10^5 cells/ml) provided in advance and, as a substance that inhibits a cell adhesion molecule(s) of the hiPS cells, E-cadherin-Fc (50 μg/ml) were added at the same time, followed by performing rotation culture at a speed of 100 rpm for 5 days. On Day 2 of the culture and thereafter (from 48 hours after the beginning of the culture), medium replacement was carried out every day with a medium to which E-cadherin-Fc was not added.

Data set [4] has as its system hiPS cells (TkDN4-M). The experiment in a line: Measurement of number of cells, Essential 8 culture (Example 3). The conditions noted are these: Examples 3-1 and 3-2 (50, 100 μg/ml) vs Comparative Example 3-1, Essential 8, after 5 days, FIG. 9. The procedure: (§3) After completion of the culture, the cells were dispersed into single cells using TrypLE® select, and the number of live cells was counted using trypan blue (manufactured by Life Technologies) and an eosinophil counter (manufactured by Tatai).
as §2

Data set [5] has as its system hiPS cells (TkDN4-M). Nature of the data set: Observation of cell aggregates in rotation suspension culture in Essential 8 (Example 3). The conditions noted are these: Day 5 of the culture, Essential 8, E-cadherin-Fc 50 or 100 μg/ml for first 48 hours, 100 rpm. The procedure:
as §2
Aggregates were obtained in the same manner as in […] except that the concentration of E-cadherin-Fc in Example 3-1 was 100 μg/ml.
Morphology of cell aggregates in Examples 3-1 and 3-2, and Comparative Example 3-1 on Day 2 and Day 5 of the culture was observed using a phase-contrast microscope (product name, DM IRB; manufactured by LEICA). From the results shown in FIGS. 6 and 7, it can be seen that the size of the aggregates can be controlled also in cases where Essential 8® is used as the medium. On Day 5 of the culture, in the cases where E-cadherin-Fc was added, the size of the aggregates was larger than that on Day 2 of the culture, and the diameter of the aggregates was controlled at about 500 μm.

The subject of data set [6] is hiPS cells (TkDN4-M). The experiment in a line: Measurement of glucose consumption, mTeSR1 culture (Example 1). The conditions noted are these: Day 5 of the culture. The procedure:
(§4) […] The sizes of the aggregates 48 hours after the E-cadherin-Fc treatment were within the range of 300 to 700 μm. Subsequently, medium replacement was carried out, and culture was carried out for three days under the same conditions as described above except that E-cadherin-Fc was not added, to obtain aggregates. The sizes of the aggregates were within the range of 500 to 1000 μm.
as §1

Data set [7] concerns hiPS cells (TkDN4-M). The experiment in a line: Measurement of live cell number after culture, mTeSR1 (Example 1). The conditions noted are these: Day 5 of the culture. On the procedure: as §4, §3

The values that follow come from patent US11225644B2, “Cell culture method, cell aggregates, cell aggregation control agent, and medium” (THE UNIVERSITY OF TOKYO, priority 2015, dated 2022).

B1: recombinant E-cadherin: recombinant E-cadherin (hRP-0339, manufactured by LD Biopharma) (protein, UniProt P12830 155-882, looked up)
Cadherin-1: DWVIPPISCPENEKGPFPKNLVQIKSNKDKEGKVFYSITGQGADTPPVGVFIIERETGWLKVTEPLDRERIATYTLFSHAVSSNGNAVEDPMEILITVTDQNDNKPEFTQEVFKGSVMEGALPGTSVMEVTATDADDDVNTYNAAIAYTILSQDPELPDKNMFTINRNTGVISVVTTGLDRESFPTYTLVVQAADLQGEGLSTTATAVITVTDTNDNPPIFNPTTYKGQVPENEANVVITTLKVTDADAPNTPAWEAVYTILNDDGGQFVVTTNPVNNDGILKTAKGLDFEAKQQYILHVAVTNVVPFEVSLTTSTATVTVDVLDVNEAPIFVPPEKRVEVSEDFGVGQEITSYTAQEPDTFMEQKITYRIWRDTANWLEINPDTGAISTRAELDREDFEHVKNSTYTALIIATDNGSPVATGTGTLLLILSDVNDNAPIPEPRTIFFCERNPKPQVINIIDADLPPNTSPFTAELTHGASANWTIQYNDPTQESIILKPKMALEVGDYKINLKLMDNQNKDQVTTLEVSVCDCEGAAGVCRKAQPVEAGLQIPAILGILGGILALLILILLLLLFLRRRAVVKEPLLPPEDDTRDNVYYYDEEGGGEEDQDFDLSQLHRGLDARPEVTRNDVAPTLMSVPRYLPRPANPDEIGNFIDENLKAADTDPTAPPYDSLLVFDYEGSGSEAASLSSLNSSESDKDQDYDYLNEWGNRFKKLADMYGGGEDD
As to B1, the “uniformity of aggregate diameters compared to Comparative Example 2-1” value with hiPS cells (TkDN4-M) [1] is given as “more uniformly controlled diameters”.

B2: E-cadherin-Fc: fusion protein of mouse E-cadherin extracellular domain and mutated IgG1-Fc domain (T252M/T254S) (protein)
chain: DWVIPPISCPENEKGEFPKNLVQIKSNRDKETKVFYSITGQGADKPPVGVFIIERETGWLKVTQPLDREAIAKYILYSHAVSSNGEAVEDPMEIVITVTDQNDNRPEFTQPVFEGFVAEGAVPGTSVMKVSATDADDDVNTYNAAIAYTIVSQDPELPHKNMFTVNRDTGVISVLTSGLDRESYPTYTLVVQAADLQGEGLSTTAKAVITVKDINDNAPVFNPSTYQGQVPENEVNARIATLKVTDDDAPNTPAWKAVYTVVNDPDQQFVVVTDPTTNDGILKTAKGLDFEAKQQYILHVRVENEEPFEGSLVPSTATVTVDVVDVNEAPIFMPAERRVEVPEDFGVGQEITSYTAREPDTFMDQKITYRIWRDTANWLEINPETGAIFTRAEMDREDAEHVKNSTYVALIIATDDGSPIATGTGTLLLVLLDVNDNAPIPEPRNMQFCQRNPQPHIITILDPDLPPNTSPFTAELTHGASVNWTIEYNDAAQESLILQPRKDLEIGEYKIHLKLADNQNKDQVTTLDVHVCDCEGTVNNCMKAGIVAAGLQV
modifications: left off: a dimerising Fc or GST
Take B2: in the data set with hiPS cells (TkDN4-M) [2] (5, 10, 20, 50 and 100 μg/ml, Day 2 of the culture, FIG. 2), the “morphology of cell aggregates compared to Comparative Example 1-1” value is “better-controlled sizes”. In addition, in the data set on hiPS cells (TkDN4-M) [2] (concentration within 10 to 50 μg/ml, Day 2, simple rotation culture), the “suppression of excessive aggregation and formation of uniform aggregates” value is “effective”. Moreover, the glucose consumption entry in the data set on hiPS cells (TkDN4-M) [3] is “excellent effect”. For the same molecule, the number of cells result in the data set with hiPS cells (TkDN4-M) [4] is listed as “excellent effect”. Moreover, in the data set on hiPS cells (TkDN4-M) [1], the “uniformity of aggregate diameters compared to Comparative Example 2-1” value is reported as “more uniformly controlled diameters”. Besides, in the data set on hiPS cells (TkDN4-M) [1] (rotation culture for 1 day), the “aggregates compared to recombinant E-cadherin or neutralizing antibody against E-cadherin” value is “larger aggregates having more uniform shapes”. Moreover, in the data set on hiPS cells (TkDN4-M) [5], the “diameter of the aggregates” value is “about 500 μm”. Also, the “glucose consumption compared to Comparative Example 1-1” value is recorded as “about twice” in the data set with hiPS cells (TkDN4-M) [6] (Example 1-1, 5 μg/ml); 2 times in the data set on hiPS cells (TkDN4-M) [6] (Example 1-2, 10 μg/ml); 2.5 times in the data set with hiPS cells (TkDN4-M) [6] (Example 1-3, 20 μg/ml); 2.5 times with hiPS cells (TkDN4-M) [6] (Example 1-4, 50 μg/ml); 2 times with hiPS cells (TkDN4-M) [6] (Example 1-5, 100 μg/ml). The “number of cells compared to Comparative Example 1-1” value is listed as “about 1.8 times” with hiPS cells (TkDN4-M) [7] (Example 1-2, 10 μg/ml); “about 2.5 times” with hiPS cells (TkDN4-M) [7] (Example 1-3, 20 μg/ml); “about 3 times” with hiPS cells (TkDN4-M) [7] (Example 1-4, 50 μg/ml); “about 2.3 times” in the data set with hiPS cells (TkDN4-M) [7] (Example 1-5, 100 μg/ml).
